For experiment [1], the target named is eel follicle-stimulating hormone receptor wild-type (eel).

As for “recombinant eel FSH (tethered eel FSH β/α) (ligand)”, the EC50 of cAMP accumulation (HTRF) in transfected CHO-K1 cells stimulated with rec-eel FSH, 0.01-1500 ng/mL is 0.283 µg/mL with eel FSHR-N120Q (eel), 0.327 µg/mL with eel FSHR-N272Q (eel), 0.281 µg/mL in the experiment with eel FSHR-N288Q (eel) and 0.201 µg/mL in experiment [1].

For the origin of these results see PMC9655291.
